Source: publication PMC11790958 (The EMBO Journal, 2024)
No end group written: not given here. *: point of attachment. 5FAM = O=C1OC2(c3ccc(O)cc3Oc3cc(O)ccc32)c2ccc(C(=O)*)cc21; 5‑FAM = 5-carboxyfluorescein label

B1: 5-FAM Lrs4(317-337) peptide (peptide)
peptide: {5‑FAM}-NKKRKLTKQRIATLPNSDEEL
notes: also called 5-FAM Lrs4(317-339); Lrs4 peptide; source: synthetic peptide; bought: Genscript
B2: 5-FAM NCAPD2-C(1376-1398) peptide (peptide)
peptide: 5FAM-SAEMTEDETPKKTTPILRASARR
notes: NCAPD2, human condensin I HAWK subunit, residues 1376-1398 (C-terminal SLiM); also called 5-FAM-NCAPD2(1376-1398); F-NCAPD2-C(1376-1398); source: synthetic peptide; bought: Genscript
B3: 5-FAM-KIF4A WT(1206-1228) peptide (peptide)
peptide: 5FAM-PGKKKKRALASNTSFFSGCSPIE
notes: KIF4A, chromokinesin, residues 1206-1228 (C-terminal tail SLiM); also called 5-FAM-KIF4A(1206-1228); 5-FAM labelled KIF4A; source: synthetic peptide; bought: Genscript
B4: 5-FAM Sgo1(503-523) peptide (peptide)
peptide: TRTKKLFKNAIVNNLSDENST
modifications: also: 5-FAM label, end not given here
notes: Sgo1, yeast shugoshin, residues 503-523, SLiM; also called Sgo peptide; source: synthetic peptide; bought: Genscript

Assays:
[1] = molecular target: T1, yeast condensin pentamer (S. cerevisiae, UniProt P38989 1-1170; Q12267 1-1418; P38170 1-754; Q06156 1-1176; Q06680 1-1035); experiment: fluorescence polarisation; 100 nM 5-FAM labelled peptide, protein or complex titrated; 20 mM HEPES pH 8, 150 mM KCl, 2.5 mM MgCl, 5% glycerol, 1 mM DTT; room temperature, 15 min; conditions: both partners purified
T1 construct: Smc2, S. cerevisiae condensin subunit; Smc4, S. cerevisiae condensin subunit; Brn1, S. cerevisiae condensin kleisin subunit; Ycs4, S. cerevisiae condensin HAWK subunit; Ycg1, S. cerevisiae condensin HAWK subunit; also called ScCondensin Pentamer; pentameric yeast condensin; source: purified as described previously (Martínez-García et al, 2022; Lee et al, 2020); copies: + + + +

[2] = molecular target: T2, human condensin I pentamer, wild type (human, UniProt O95347 1-1197; Q9NTJ3 1-1288; Q15003 1-741; Q15021 1-1401; Q9BPX3 1-1015); experiment: as above; conditions: both partners purified
T2 construct: SMC2, human condensin I subunit; SMC4, human condensin I subunit; NCAPH, human condensin I kleisin subunit; NCAPD2, human condensin I HAWK subunit; NCAPG, human condensin I HAWK subunit; The complex carries a strep tag; also called CI; CIWT; source: Sf9 insect cells (baculovirus), co-expressed, purified (StrepTrap, heparin, SEC); copies: + + + +

Row | Binder | Kd [1] | other results
1 | B1 | 12.9 ± 2.5 µM | 
2 | B2 |  | binding result [2]: binds
3 | B3 |  | Kd [2]: 17.7 µM
4 | B4 | 4 ± 0.3 µM | 
